Measured values as given in US20210106652A1, “Immunogenic Compounds For Treatment Of Fibrosis, Autoimmune Diseases And Inflammation” (ENTEROME S.A., priority 2018, published 2021).

What was measured:
HLA-A*0201 = target: T1, HLA-A*0201 (Homo sapiens, UniProt P04439, D140Y/D185E/D98H/E176V/E277Q/G131W/G231S/I119V/I121R/I166T/I218V/L300P/L318F/N151K/N90K/P208A/P217A/Q86G/Q94H/R138H/R169H/T345S); experiment: Affinity of the peptide to HLA-A*0201 on T2 cell line (FACS, anti-HLA-A2); type: binding; conditions: for In vitro binding affinity: Example 5, relative affinity = concentration of peptide inducing 20% of HLA-A*0201 expression / that of reference peptide HIV pol 589-597, lower = higher affinity; for Concentration of peptide that induces 20% of HLA-A2 expression: Example 7; for binding to HLA-A*0201 (in words): T2 cells
T1 construct: human tumoral cell T2 which expresses the HLA-A*0201 molecule; endogenous in cells; host or cells: T2 cells (human, TAP1/2 negative)
From the text: The experimental protocol is similar to the one that was validated for peptides presented by the HLA-A*0201 (Tourdot et al., A general strategy to enhance immunogenicity of low-affinity HLA-A2.1-associated peptides: implication in the identification of cryptic tumor epitopes. Eur J Immunol. 2000 December; 30(12):3411-21). Affinity measurement of the peptides is achieved with the human tumoral cell T2 which expresses the HLA-A*0201 molecule, but which is TAP1/2 negative and incapable of presenting endogenous peptides.
(§1) T2 cells (2.10^5 cells per well) are incubated with decreasing concentrations of peptides from 100 μM to 0.1 μM in a AIMV medium supplemented with 100 ng/μl of human β2m at 37° C. for 16 hours. Cells are then washed two times and marked with the anti-HLA-A2 antibody coupled to PE (clone BB7.2, BD Pharmagen).
The analysis is achieved by FACS (Guava Easy Cyte).
(§2) For each peptide concentration, the geometric mean of the labelling associated with the peptide of interest is substracted from background noise and reported as a percentage of the geometric mean of the […] labelling obtained for the reference peptide HIV pol 589-597 at a concentration of 100 μM. The relative affinity is then determined as follows:
relative affinity=concentration of each peptide inducing 20% of expression of HLA-A*0201/concentration of the reference peptide inducing 20% of expression of HLA-A*0201.
The experimental protocol was similar to the one that was validated for peptides presented by the HLA-A*0201 (Tourdot et al., A general strategy to enhance immunogenicity of low-affinity HLA-A2.1-associated peptides: implication in the identification of cryptic tumor epitopes. Eur J Immunol. 2000 December; 30(12):3411-21).
as §1, with “were” for “are”
The analysis was achieved by FACS (Guava Easy Cyte).
as §2, with “was subtracted” for “is substracted”
The experimental protocol, materials and methods correspond to those outlined in Example 3, with the only difference that the above mentioned (poly)peptides were used.
The experimental protocol, materials and methods correspond to those outlined in Example 2, with the only difference that the above mentioned (poly)peptides were used.

HHD DR3 mice = experiment: IFN-γ ELISpot immunogenicity and cross-reactivity in HHD DR3 (HLA-A2 transgenic) mice; type: in vivo, mouse; conditions: 100 μg s.c. d0, d14 with helper peptide (DR3) and IFA; challenge with either IL13RA2-L or IL13RA2-H
Experimental: The (poly)peptide of the present invention IL13RA2-L (SEQ ID NO: 279) and the corresponding human reference peptide IL13RA2-H (SEQ ID NO: 263) were tested in distinct groups of male and female HHD DR3 mice expressing human HLA-A2 and HLA-DR3 MHC and lacking the murine H-2 class I and class II MHCs. Groups of 5 mice (male and female) were subcutaneously injected on days 0 and 14 with 100 μg of IL13RA2-L (SEQ ID NO: 279) or IL13RA2-H (SEQ ID NO: 263), 150 μg of helper peptide (DR3) and IFA. On day 21, the mice were euthanized and splenocytes were prepared and stimulated in vitro with IL13RA2-L or the human corresponding peptide IL13RA2-H to assess their capacity to secrete IFN- as assessed by ELISpot. Concanavalin A (ConA) was used as a positive control.

[1] = target: T2, HLA-A*0201 molecule expressed on human T2 cells (human); experiment: T2 cell assay; relative affinity against reference peptide HIV pol 589-597
T2 construct: MHC class I molecule on T2 cells; also called HLA-A2

Molecule: 1F9M: tryptophan at position 1 of SEQ ID No 263 substituted by phenylalanine and isoleucine at position 9 substituted by methionine (FLPFGFILM)
- In vitro binding affinity (HLA-A*0201): 2.62

Molecule: 1I9A: tryptophan at position 1 of SEQ ID No 263 substituted by isoleucine and isoleucine at position 9 substituted by alanine (ILPFGFILA)
- In vitro binding affinity (HLA-A*0201): 2.22

Molecule: ALPFGFILV [1A9V]
- In vitro binding affinity (HLA-A*0201): 3.06
- Concentration of peptide that induces 20% of HLA-A2 expression (HLA-A*0201): 36.5 µM

Molecule: CLYTFLIST [IL13RA2-H2]
- binding to HLA-A*0201 (in words) (HLA-A*0201): do not bind to or show much lower affinity

Molecule: FLPFGFILPV [IL13RA2-L]
- Concentration of peptide that induces 20% of HLA-A2 expression (HLA-A*0201): 3.2 µM
- immune response (IFN-γ ELISpot, spot forming cells) after immunisation (HHD DR3 mice): strongly immunogenic

Molecule: FLPFGFILV [IL13RA2-B]
- Concentration of peptide that induces 20% of HLA-A2 expression (HLA-A*0201): 2.9 µM
- binding to HLA-A*0201 (in words) (HLA-A*0201): bind strongly

Molecule: WLPFGFILI [IL13RA2-H]
- binding to HLA-A*0201 (in words) (HLA-A*0201): do not bind to or show much lower affinity
- immune response (IFN-γ ELISpot, spot forming cells) after immunisation (HHD DR3 mice): does not induce an immune response

Molecule: YLYTFLIST [IL13RA2-B2]
- binding to HLA-A*0201 (in words) (HLA-A*0201): bind strongly

B1: IL13RA2-B (FLPFGFILV, SEQ ID NO: 31) (peptide)
peptide: FLPFGFILV
notes: also called IL13RA2-B pAg; candidate peptide
- In vitro binding affinity [1]: 0.3

B2: peptide 1A9V (SEQ ID NO: 263 with tryptophan 1 to alanine and isoleucine 9 to valine) (peptide)
peptide: ALPFGFILV
notes: Analogue described by Eguchi et al. 2006; also called comparative peptide 1A9V
- In vitro binding affinity [1]: 3.6

Molecule: FLPFGFILPV (also called IL13R2A-L) [IL13RA2-L (SEQ ID NO: 279)]
- In vitro binding affinity [1]: 0.3
